Data from PMC5123071, “The Apaf-1 apoptosome induces formation of caspase-9 homo- and heterodimers with distinct activities” (Nature Communications, 2016).
Each block holds one binder with its values, some of them ahead of it.

B3: C9-p35/p12-CIVSM (enzyme)
chain 1: MDEADRRLLRRCRLRLVEELQVDQLWDALLSRELFRPHMIEDIQRAGSGSRRDQARQLIIDLETRGSQALPLFISCLEDTGQDMLASFLRTNRQAAKLSKPTLENLTPVVLRPEIRKPEVLRPETPRPVDIGSGGFGDVGALESLRGNADLAYILSMEPCGHCLIINNVNFCRESGLRTRTGSNIDCEKLRRRFSSLHFMVEVKGDLTAKKMVLALLELAQQDHGALDCCVVVILSHGCQASHLQFPGAVYGTDGCPVSVEKIVNIFNGTSCPSLGGKPKLFFIQACGGEQKDHGFEVASTSPEDESPGSNPEPD
chain 2: ATPFQEGLRTFDQLDAISSLPTPSDIFVSYSTFPGFVSWRDPKSGSWYVETLDDIFEQWAHSEDLQSLLLRVANAVSVKGIYKQMPCIVSMLRKKLFFKTS
notes: caspase-9, p35 (prodomain and large subunit), ends at Asp-315; caspase-9, p12 small subunit, GCFNF dimer motif replaced by the caspase-3 motif CIVSM; Homodimer by SEC-MALS; also called GCFNF→CIVSM; source: E. coli BL21(DE3)pLysS, ProC9-CIVSM fully processed during expression, purified (Ni2+-NTA, Mono-Q); copies: 2 + 2
B4: biotinylated Apaf-1 CARD-LZ-Avi (domain or fragment)
chain: not shown
modifications: biotin on the AviTag (BirA)
notes: Apaf-1 CARD (1-137); GCN4 leucine zipper, C-terminal to the CARD, followed by the AviTag and the His6-tag; Cloned into pRSF-Duet1; also called Apaf-1 CARDs; source: E. coli BL21(DE3)pLysS, purified (Ni2+-NTA, Mono-Q), biotinylated with BirA, avidin column

Assays:
[1] = biological target: B4; assay: SPR; biotinylated Apaf-1 CARD-LZ-Avi immobilised on an SA chip; C9 proteins 125 nM-2 μM as analytes; 0.01 M HEPES, 0.15 M NaCl, 3 mM EDTA, 0.05% P20; room temperature; affinities by equilibrium analysis, kinetics fitted to a two-state model; settings: both partners purified
[2] = biological target: the molecule itself; assay: SEC; Apaf-1 NOD (1.5 μM) and ΔPro-C9-TM (80 nM) with dATP/MgCl2 (2 mM each), 30 min 37 °C; Superose-6 in 20 mM HEPES, 50 mM NaCl, 10 mM DTT, pH 8.0; fractions immunoblotted with anti-T7
[3] = biological target: the molecule itself; assay: SEC-MALS; recombinant C9 proteins 200 μl at 40 μM; 20 mM HEPES, 50 mM NaCl, pH 8.0; 0.5 ml/min
[4] = biological target: T1, recombinant full-length Apaf-1XL (UniProt O14727-1 1-1248); assay: SEC; Apaf-1 (300 nM) with C9 protein (200 nM) and Cc/dATP, 30 min 37 °C; Superose-6 gel filtration, pooled fractions precipitated and immunoblotted for Apaf-1 and C9; settings: both partners purified
T1 construct: Oligomerised into the apoptosome with bovine cytochrome c (Sigma) and dATP/MgCl2; also called oligomerized Apaf-1; Apaf-1 apoptosome; source: Hi-five or Sf21 cells, baculovirus, purified
T1 sequence (looked up): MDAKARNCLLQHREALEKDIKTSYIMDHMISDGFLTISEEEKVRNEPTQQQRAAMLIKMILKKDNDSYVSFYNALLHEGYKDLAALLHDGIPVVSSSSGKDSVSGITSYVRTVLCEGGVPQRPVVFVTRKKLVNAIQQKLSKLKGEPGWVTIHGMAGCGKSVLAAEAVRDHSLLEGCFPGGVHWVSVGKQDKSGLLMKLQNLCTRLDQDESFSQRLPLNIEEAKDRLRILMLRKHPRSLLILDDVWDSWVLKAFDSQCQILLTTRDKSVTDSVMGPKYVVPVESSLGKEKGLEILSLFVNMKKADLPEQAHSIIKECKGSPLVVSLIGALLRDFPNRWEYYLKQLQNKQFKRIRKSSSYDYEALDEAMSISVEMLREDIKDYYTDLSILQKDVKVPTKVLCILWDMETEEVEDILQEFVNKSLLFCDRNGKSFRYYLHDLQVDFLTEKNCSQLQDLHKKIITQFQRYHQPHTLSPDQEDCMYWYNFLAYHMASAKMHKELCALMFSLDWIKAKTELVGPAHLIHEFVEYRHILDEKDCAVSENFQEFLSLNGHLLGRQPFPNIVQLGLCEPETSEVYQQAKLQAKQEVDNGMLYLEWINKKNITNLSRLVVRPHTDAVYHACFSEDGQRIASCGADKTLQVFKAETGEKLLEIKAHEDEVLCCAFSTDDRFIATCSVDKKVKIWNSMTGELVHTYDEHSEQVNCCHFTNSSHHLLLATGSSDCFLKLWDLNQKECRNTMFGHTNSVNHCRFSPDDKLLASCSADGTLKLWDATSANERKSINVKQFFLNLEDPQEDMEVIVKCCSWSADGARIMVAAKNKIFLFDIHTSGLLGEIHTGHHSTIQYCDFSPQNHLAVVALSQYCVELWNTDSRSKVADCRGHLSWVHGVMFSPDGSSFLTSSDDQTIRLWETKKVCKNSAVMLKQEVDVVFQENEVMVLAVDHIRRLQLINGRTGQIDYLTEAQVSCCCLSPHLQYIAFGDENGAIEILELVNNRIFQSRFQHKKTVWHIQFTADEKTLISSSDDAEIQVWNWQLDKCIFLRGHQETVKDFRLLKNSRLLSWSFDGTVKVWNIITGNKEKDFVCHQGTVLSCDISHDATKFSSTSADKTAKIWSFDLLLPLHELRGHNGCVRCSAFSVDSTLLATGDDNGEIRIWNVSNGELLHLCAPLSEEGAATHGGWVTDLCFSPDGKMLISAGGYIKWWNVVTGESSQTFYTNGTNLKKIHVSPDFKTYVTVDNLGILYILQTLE

[5] = biological target: T2, processed two-chain caspase-9 C9-p35/p12 (UniProt P55211 1-315; P55211 316-416); assay: SPR; biotinylated Apaf-1 CARD-LZ-Avi immobilised on an SA chip; C9 proteins 125 nM-2 μM as analytes; 0.01 M HEPES, 0.15 M NaCl, 3 mM EDTA, 0.05% P20; room temperature; affinities by equilibrium analysis, kinetics fitted to a two-state model; settings: both partners purified
T2 construct: caspase-9, p35 (prodomain and large subunit), ends at Asp-315 (PEPD315); caspase-9, p12 small subunit with the intersubunit linker, begins after Asp-315; Purified on Ni2+-NTA; also called processed C9; cleaved C9; source: E. coli BL21(DE3)pLysS, wild-type ProC9 overexpressed and autocleaved at Asp-315, purified (Ni2+-NTA, Mono-Q)
T2 sequence (looked up) 1: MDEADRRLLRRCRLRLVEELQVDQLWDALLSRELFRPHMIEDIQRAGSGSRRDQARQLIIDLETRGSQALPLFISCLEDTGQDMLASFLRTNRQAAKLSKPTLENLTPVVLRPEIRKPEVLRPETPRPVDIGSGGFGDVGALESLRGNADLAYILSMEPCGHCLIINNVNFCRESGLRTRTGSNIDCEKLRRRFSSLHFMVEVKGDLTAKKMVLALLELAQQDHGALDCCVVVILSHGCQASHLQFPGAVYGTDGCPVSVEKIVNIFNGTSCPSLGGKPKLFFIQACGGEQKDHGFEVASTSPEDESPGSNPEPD
T2 sequence (looked up) 2: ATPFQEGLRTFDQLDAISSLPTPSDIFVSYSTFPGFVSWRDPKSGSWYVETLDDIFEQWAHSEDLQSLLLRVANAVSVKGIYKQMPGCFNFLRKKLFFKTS

C9-p35/p12-CIVSM = biological target: B3; assay: as above; settings: both partners purified

- Kd [1]: 41800 nM
B1: C9 prodomain (domain or fragment)
chain: MDEADRRLLRRCRLRLVEELQVDQLWDALLSRELFRPHMIEDIQRAGSGSRRDQARQLIIDLETRGSQALPLFISCLEDTGQDMLASFLRTNRQAAKLSKPTLENLTPVVLRPEIRKPEVLRPETPRPVDIGSGGFG

B2: Apaf-1 NOD protein (127-530) (domain or fragment, UniProt O14727 127-530, looked up)
chain: VTRKKLVNAIQQKLSKLKGEPGWVTIHGMAGCGKSVLAAEAVRDHSLLEGCFPGGVHWVSVGKQDKSGLLMKLQNLCTRLDQDESFSQRLPLNIEEAKDRLRILMLRKHPRSLLILDDVWDSWVLKAFDSQCQILLTTRDKSVTDSVMGPKYVVPVESSLGKEKGLEILSLFVNMKKADLPEQAHSIIKECKGSPLVVSLIGALLRDFPNRWEYYLKQLQNKQFKRIRKSSSYDYEALDEAMSISVEMLREDIKDYYTDLSILQKDVKVPTKVLCILWDMETEEVEDILQEFVNKSLLFCDRNGKSFRYYLHDLQVDFLTEKNCSQLQDLHKKIITQFQRYHQPHTLSPDQEDCMYWYNFLAYHMASAKMHKELCALMFSLDWIKAKTELVGPAHLIHEFVEYR
notes: aa 127–530); Oligomerised with dATP/MgCl2; also called T7-NOD; NOD apoptosome complexes; source: E. coli BL21(DE3)pLysS, purified (Ni2+-NTA, Mono-Q; MBP removed with TEV protease, negative selection on Ni2+-NTA beads; not shown: MBP, N-terminal, cleaved; His6, internal (between MBP and NOD), cleaved
- binding result [2]: binds

Binder: B3
- stoichiometry N [3]: 2
- binding result [4]: binds

Binder: B4
- Kd [5]: 388 nM
- Kd (C9-p35/p12-CIVSM): 68 nM
